From the Human Domainome abundance scans (Beltran et al. 2025)
± gives the uncertainty stated by the source.

B1: Formin-binding protein 4, residues 200 to 261; numbered along this chain, Q8N3X1 (parent)
chain: SGWQYDTQCSLAGVGIEMGDWQEVWDENTGCYYYWNTQTNEVTWELPQYLATQVQGLQHYQP

Variants of: B1
Assay: abundance fitness (aPCA) (normalised: wild type 0, dead -1); higher = more abundant; growth selection in yeast, the domain comes from the species named
Details: Homo sapiens

| Variant | abundance fitness |
| --- | --- |
| SGWQYDTQCSLAGVGIEMGDWQEVWDENTNCYYYWNTQTNEVTWELPQYLATQVQGLQHYQP | -0.15 ± 0.16 |
| SGWQYDTQCSLAGVGIEMGDWQEVWDENTPCYYYWNTQTNEVTWELPQYLATQVQGLQHYQP | -0.219 ± 0.13 |
| SGWQYDTQCSLAGVGIEMGDWQEVWDENTQCYYYWNTQTNEVTWELPQYLATQVQGLQHYQP | 0.049 ± 0.086 |
| SGWQYDTQCSLAGVGIEMGDWQEVWDENTRCYYYWNTQTNEVTWELPQYLATQVQGLQHYQP | 0.078 ± 0.053 |
| SGWQYDTQCSLAGVGIEMGDWQEVWDENTSCYYYWNTQTNEVTWELPQYLATQVQGLQHYQP | 0.006 ± 0.088 |
| SGWQYDTQCSLAGVGIEMGDWQEVWDENTVCYYYWNTQTNEVTWELPQYLATQVQGLQHYQP | -0.191 ± 0.057 |
| SGWQYDTQCSLAGVGIEMGDWQEVWDENTWCYYYWNTQTNEVTWELPQYLATQVQGLQHYQP | -0.23 ± 0.08 |
| SGWQYDTQCSLAGVGIEMGDWQEVWDENTYCYYYWNTQTNEVTWELPQYLATQVQGLQHYQP | -0.473 ± 0.21 |
| SGWQYDTQCSLAGVGIEMGDWQEVWDENTGAYYYWNTQTNEVTWELPQYLATQVQGLQHYQP | 0.01 ± 0.063 |
| SGWQYDTQCSLAGVGIEMGDWQEVWDENTGEYYYWNTQTNEVTWELPQYLATQVQGLQHYQP | -0.422 ± 0.093 |
| SGWQYDTQCSLAGVGIEMGDWQEVWDENTGFYYYWNTQTNEVTWELPQYLATQVQGLQHYQP | 0.083 ± 0.077 |
| SGWQYDTQCSLAGVGIEMGDWQEVWDENTGGYYYWNTQTNEVTWELPQYLATQVQGLQHYQP | -0.125 ± 0.057 |
| SGWQYDTQCSLAGVGIEMGDWQEVWDENTGHYYYWNTQTNEVTWELPQYLATQVQGLQHYQP | -0.017 ± 0.12 |
| SGWQYDTQCSLAGVGIEMGDWQEVWDENTGIYYYWNTQTNEVTWELPQYLATQVQGLQHYQP | -0.326 ± 0.092 |
| SGWQYDTQCSLAGVGIEMGDWQEVWDENTGKYYYWNTQTNEVTWELPQYLATQVQGLQHYQP | 0.066 ± 0.088 |
| SGWQYDTQCSLAGVGIEMGDWQEVWDENTGLYYYWNTQTNEVTWELPQYLATQVQGLQHYQP | -0.183 ± 0.058 |
| SGWQYDTQCSLAGVGIEMGDWQEVWDENTGMYYYWNTQTNEVTWELPQYLATQVQGLQHYQP | -0.127 ± 0.086 |
| SGWQYDTQCSLAGVGIEMGDWQEVWDENTGNYYYWNTQTNEVTWELPQYLATQVQGLQHYQP | 0.107 ± 0.12 |
| SGWQYDTQCSLAGVGIEMGDWQEVWDENTGPYYYWNTQTNEVTWELPQYLATQVQGLQHYQP | -0.742 ± 0.14 |
| SGWQYDTQCSLAGVGIEMGDWQEVWDENTGQYYYWNTQTNEVTWELPQYLATQVQGLQHYQP | -0.038 ± 0.1 |
| SGWQYDTQCSLAGVGIEMGDWQEVWDENTGRYYYWNTQTNEVTWELPQYLATQVQGLQHYQP | 0.165 ± 0.056 |
| SGWQYDTQCSLAGVGIEMGDWQEVWDENTGSYYYWNTQTNEVTWELPQYLATQVQGLQHYQP | 0.031 ± 0.059 |

| Variant | abundance fitness |
| --- | --- |
| SGWQYDTQCSLAGVGIEMGDWQEVWDENTGTYYYWNTQTNEVTWELPQYLATQVQGLQHYQP | -0.094 ± 0.071 |
| SGWQYDTQCSLAGVGIEMGDWQEVWDENTGVYYYWNTQTNEVTWELPQYLATQVQGLQHYQP | -0.129 ± 0.059 |
| SGWQYDTQCSLAGVGIEMGDWQEVWDENTGWYYYWNTQTNEVTWELPQYLATQVQGLQHYQP | -0.662 ± 0.12 |
| SGWQYDTQCSLAGVGIEMGDWQEVWDENTGYYYYWNTQTNEVTWELPQYLATQVQGLQHYQP | -0.063 ± 0.11 |
| SGWQYDTQCSLAGVGIEMGDWQEVWDENTGCAYYWNTQTNEVTWELPQYLATQVQGLQHYQP | -0.502 ± 0.079 |
| SGWQYDTQCSLAGVGIEMGDWQEVWDENTGCCYYWNTQTNEVTWELPQYLATQVQGLQHYQP | -0.478 ± 0.15 |
| SGWQYDTQCSLAGVGIEMGDWQEVWDENTGCEYYWNTQTNEVTWELPQYLATQVQGLQHYQP | -0.673 ± 0.091 |
| SGWQYDTQCSLAGVGIEMGDWQEVWDENTGCFYYWNTQTNEVTWELPQYLATQVQGLQHYQP | -0.009 ± 0.1 |
| SGWQYDTQCSLAGVGIEMGDWQEVWDENTGCGYYWNTQTNEVTWELPQYLATQVQGLQHYQP | -0.678 ± 0.081 |
| SGWQYDTQCSLAGVGIEMGDWQEVWDENTGCHYYWNTQTNEVTWELPQYLATQVQGLQHYQP | -0.16 ± 0.14 |
| SGWQYDTQCSLAGVGIEMGDWQEVWDENTGCIYYWNTQTNEVTWELPQYLATQVQGLQHYQP | -0.3 ± 0.13 |
| SGWQYDTQCSLAGVGIEMGDWQEVWDENTGCKYYWNTQTNEVTWELPQYLATQVQGLQHYQP | -1.02 ± 0.18 |
| SGWQYDTQCSLAGVGIEMGDWQEVWDENTGCLYYWNTQTNEVTWELPQYLATQVQGLQHYQP | -0.633 ± 0.071 |
| SGWQYDTQCSLAGVGIEMGDWQEVWDENTGCMYYWNTQTNEVTWELPQYLATQVQGLQHYQP | -0.511 ± 0.097 |
| SGWQYDTQCSLAGVGIEMGDWQEVWDENTGCNYYWNTQTNEVTWELPQYLATQVQGLQHYQP | -0.487 ± 0.16 |
| SGWQYDTQCSLAGVGIEMGDWQEVWDENTGCPYYWNTQTNEVTWELPQYLATQVQGLQHYQP | -0.417 ± 0.11 |
| SGWQYDTQCSLAGVGIEMGDWQEVWDENTGCQYYWNTQTNEVTWELPQYLATQVQGLQHYQP | -0.818 ± 0.16 |
| SGWQYDTQCSLAGVGIEMGDWQEVWDENTGCRYYWNTQTNEVTWELPQYLATQVQGLQHYQP | -0.792 ± 0.1 |
| SGWQYDTQCSLAGVGIEMGDWQEVWDENTGCSYYWNTQTNEVTWELPQYLATQVQGLQHYQP | -0.567 ± 0.089 |
| SGWQYDTQCSLAGVGIEMGDWQEVWDENTGCTYYWNTQTNEVTWELPQYLATQVQGLQHYQP | -0.773 ± 0.11 |
| SGWQYDTQCSLAGVGIEMGDWQEVWDENTGCVYYWNTQTNEVTWELPQYLATQVQGLQHYQP | -0.677 ± 0.077 |
| SGWQYDTQCSLAGVGIEMGDWQEVWDENTGCWYYWNTQTNEVTWELPQYLATQVQGLQHYQP | -0.543 ± 0.11 |

| Variant | abundance fitness |
| --- | --- |
| SGWQYDTQCSLAGVGIEMGDWQEVWDENTGCYAYWNTQTNEVTWELPQYLATQVQGLQHYQP | -0.691 ± 0.09 |
| SGWQYDTQCSLAGVGIEMGDWQEVWDENTGCYCYWNTQTNEVTWELPQYLATQVQGLQHYQP | -0.213 ± 0.13 |
| SGWQYDTQCSLAGVGIEMGDWQEVWDENTGCYDYWNTQTNEVTWELPQYLATQVQGLQHYQP | -0.706 ± 0.15 |
| SGWQYDTQCSLAGVGIEMGDWQEVWDENTGCYEYWNTQTNEVTWELPQYLATQVQGLQHYQP | -0.458 ± 0.1 |
| SGWQYDTQCSLAGVGIEMGDWQEVWDENTGCYFYWNTQTNEVTWELPQYLATQVQGLQHYQP | -0.281 ± 0.15 |
| SGWQYDTQCSLAGVGIEMGDWQEVWDENTGCYGYWNTQTNEVTWELPQYLATQVQGLQHYQP | -0.576 ± 0.063 |
| SGWQYDTQCSLAGVGIEMGDWQEVWDENTGCYHYWNTQTNEVTWELPQYLATQVQGLQHYQP | -0.169 ± 0.17 |
| SGWQYDTQCSLAGVGIEMGDWQEVWDENTGCYIYWNTQTNEVTWELPQYLATQVQGLQHYQP | -0.566 ± 0.25 |
| SGWQYDTQCSLAGVGIEMGDWQEVWDENTGCYKYWNTQTNEVTWELPQYLATQVQGLQHYQP | 0.016 ± 0.08 |
| SGWQYDTQCSLAGVGIEMGDWQEVWDENTGCYLYWNTQTNEVTWELPQYLATQVQGLQHYQP | -0.477 ± 0.073 |
| SGWQYDTQCSLAGVGIEMGDWQEVWDENTGCYMYWNTQTNEVTWELPQYLATQVQGLQHYQP | -0.316 ± 0.079 |
| SGWQYDTQCSLAGVGIEMGDWQEVWDENTGCYPYWNTQTNEVTWELPQYLATQVQGLQHYQP | -0.676 ± 0.12 |
| SGWQYDTQCSLAGVGIEMGDWQEVWDENTGCYQYWNTQTNEVTWELPQYLATQVQGLQHYQP | -0.389 ± 0.1 |
| SGWQYDTQCSLAGVGIEMGDWQEVWDENTGCYRYWNTQTNEVTWELPQYLATQVQGLQHYQP | -0.201 ± 0.059 |
| SGWQYDTQCSLAGVGIEMGDWQEVWDENTGCYSYWNTQTNEVTWELPQYLATQVQGLQHYQP | -0.212 ± 0.075 |
| SGWQYDTQCSLAGVGIEMGDWQEVWDENTGCYTYWNTQTNEVTWELPQYLATQVQGLQHYQP | -0.335 ± 0.099 |
| SGWQYDTQCSLAGVGIEMGDWQEVWDENTGCYVYWNTQTNEVTWELPQYLATQVQGLQHYQP | -0.447 ± 0.061 |
| SGWQYDTQCSLAGVGIEMGDWQEVWDENTGCYWYWNTQTNEVTWELPQYLATQVQGLQHYQP | -0.52 ± 0.091 |
| SGWQYDTQCSLAGVGIEMGDWQEVWDENTGCYYAWNTQTNEVTWELPQYLATQVQGLQHYQP | -0.866 ± 0.11 |
| SGWQYDTQCSLAGVGIEMGDWQEVWDENTGCYYCWNTQTNEVTWELPQYLATQVQGLQHYQP | -0.927 ± 0.22 |
| SGWQYDTQCSLAGVGIEMGDWQEVWDENTGCYYDWNTQTNEVTWELPQYLATQVQGLQHYQP | -1 ± 0.23 |
| SGWQYDTQCSLAGVGIEMGDWQEVWDENTGCYYEWNTQTNEVTWELPQYLATQVQGLQHYQP | -0.791 ± 0.13 |

| Variant | abundance fitness |
| --- | --- |
| SGWQYDTQCSLAGVGIEMGDWQEVWDENTGCYYFWNTQTNEVTWELPQYLATQVQGLQHYQP | -0.18 ± 0.11 |
| SGWQYDTQCSLAGVGIEMGDWQEVWDENTGCYYGWNTQTNEVTWELPQYLATQVQGLQHYQP | -0.664 ± 0.084 |
| SGWQYDTQCSLAGVGIEMGDWQEVWDENTGCYYHWNTQTNEVTWELPQYLATQVQGLQHYQP | -0.873 ± 0.34 |
| SGWQYDTQCSLAGVGIEMGDWQEVWDENTGCYYKWNTQTNEVTWELPQYLATQVQGLQHYQP | -0.726 ± 0.17 |
| SGWQYDTQCSLAGVGIEMGDWQEVWDENTGCYYLWNTQTNEVTWELPQYLATQVQGLQHYQP | -0.796 ± 0.088 |
| SGWQYDTQCSLAGVGIEMGDWQEVWDENTGCYYMWNTQTNEVTWELPQYLATQVQGLQHYQP | -0.962 ± 0.14 |
| SGWQYDTQCSLAGVGIEMGDWQEVWDENTGCYYPWNTQTNEVTWELPQYLATQVQGLQHYQP | -1.21 ± 0.22 |
| SGWQYDTQCSLAGVGIEMGDWQEVWDENTGCYYQWNTQTNEVTWELPQYLATQVQGLQHYQP | -0.946 ± 0.15 |
| SGWQYDTQCSLAGVGIEMGDWQEVWDENTGCYYSWNTQTNEVTWELPQYLATQVQGLQHYQP | -0.862 ± 0.11 |
| SGWQYDTQCSLAGVGIEMGDWQEVWDENTGCYYTWNTQTNEVTWELPQYLATQVQGLQHYQP | -0.847 ± 0.14 |
| SGWQYDTQCSLAGVGIEMGDWQEVWDENTGCYYVWNTQTNEVTWELPQYLATQVQGLQHYQP | -0.669 ± 0.083 |
| SGWQYDTQCSLAGVGIEMGDWQEVWDENTGCYYWWNTQTNEVTWELPQYLATQVQGLQHYQP | -0.449 ± 0.082 |
| SGWQYDTQCSLAGVGIEMGDWQEVWDENTGCYYYANTQTNEVTWELPQYLATQVQGLQHYQP | 0.196 ± 0.054 |
| SGWQYDTQCSLAGVGIEMGDWQEVWDENTGCYYYDNTQTNEVTWELPQYLATQVQGLQHYQP | -0.159 ± 0.19 |
| SGWQYDTQCSLAGVGIEMGDWQEVWDENTGCYYYENTQTNEVTWELPQYLATQVQGLQHYQP | 0.328 ± 0.076 |
| SGWQYDTQCSLAGVGIEMGDWQEVWDENTGCYYYFNTQTNEVTWELPQYLATQVQGLQHYQP | 0.112 ± 0.2 |
| SGWQYDTQCSLAGVGIEMGDWQEVWDENTGCYYYGNTQTNEVTWELPQYLATQVQGLQHYQP | -0.297 ± 0.058 |
| SGWQYDTQCSLAGVGIEMGDWQEVWDENTGCYYYHNTQTNEVTWELPQYLATQVQGLQHYQP | 0.166 ± 0.25 |
| SGWQYDTQCSLAGVGIEMGDWQEVWDENTGCYYYINTQTNEVTWELPQYLATQVQGLQHYQP | 0.09 ± 0.22 |
| SGWQYDTQCSLAGVGIEMGDWQEVWDENTGCYYYKNTQTNEVTWELPQYLATQVQGLQHYQP | 0.355 ± 0.09 |
